Experimental data as given in the supplement of paper PMC12764529.
± gives the half width of the 95% confidence interval.

Assays:
[1] = folding stability dG unfold (combined trypsin and chymotrypsin); higher = more stable
How it was run: (§1)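 Digests were run with trypsin and chymotrypsin at 11 concentrations in threefold dilutions, plus a no-protease condition, on designed mini-proteins in a PA-tagged cDNA display construct. The mini-proteins were under 80 residues, had no cysteine, and were kept only when AlphaFold2 dimer inter-PAE was above 15. After sequencing, Bayesian fitting of the counts gave K50, from which unfolding free energy was derived against a sequence-predicted unfolded-state K50 and a shared folded-state K50, per protease or combined.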

[2] = folding stability dG unfold from chymotrypsin proteolysis; higher = more stable
How it was run: as §1

[3] = folding stability dG unfold from trypsin proteolysis; higher = more stable
How it was run: as §1

Sequence	folding stability dG unfold [1]	folding stability dG unfold [2]	folding stability dG unfold [3]
SAGGSAMKLTFTDSKGRTIEITVEKKYLPNGEPYLIITIKYPDTDEEIVITMPTSNIDEILEKLLNSAGGSA [r15_92_JUSTAS]	4.27 ± 0.24 kcal/mol	4.28 ± 0.11 kcal/mol	4.06 ± 0.32 kcal/mol
SAGGSAGGSMTITYDPVSNTYTVNLSLEGGTKTYTVPSLEALKATLKAEGLPWGPPPITTVSASAGGSAGGS [r12_834_JUSTAS]	4.96 ± 0.079 kcal/mol	5.05 ± 0.063 kcal/mol	3.43 ± 0.08 kcal/mol
SAKAELEIKFPGWKVTVEIEDVDPKNDMVKLKAFFRNGWVFTQTVNPDDGKIEIPIIPVKPDPDGKWKFSAG [r14_466_TrROS]	1.35 ± 0.091 kcal/mol	1.38 ± 0.096 kcal/mol	1.21 ± 0.032 kcal/mol
SAGGSAGGSAGGVKYLTLTLPDGTVIKVPVDEPVEIRGEDGRPVEIVEAKVTEGPPGLGSAGGSAGGSAGGS [r10_20_JUSTAS]	1.94 ± 0.072 kcal/mol	2.326 ± 0.021 kcal/mol	0.963 ± 0.042 kcal/mol
SAGGKKKITITIEEVEELENGPLVYRVTIEVDGKTYEILIEADSLEEAKAAAEKLAEELNVEVTIEPVSAGG [r13_750_TrROS_Hall]	3.86 ± 0.11 kcal/mol	4.22 ± 0.048 kcal/mol	2.55 ± 0.097 kcal/mol
SAGGSAGGSADYFMVVIKYYPPNGEKQEHPFSVPFKDEEDLKDEIKEQAPPGREVEIEIFPMSAGGSAGGSA [r18_60_TrROS]	0.647 ± 0.12 kcal/mol	-0.0385 ± 0.17 kcal/mol	0.956 ± 0.083 kcal/mol
SAGGSAGGSFRIPKGDPNMKIRIIFQWPNGQPMPMEYTVTPDGTFKINIPGMPPNRIESIEIWSAGGSAGGS [r12_477_TrROS]	1.95 ± 0.21 kcal/mol	1.68 ± 0.26 kcal/mol	1.98 ± 0.17 kcal/mol
SAGTIRLNGLELEVDIEWWPEHGYITINVTITWPNGRTMMMQIIIKVKPVKPPPPPPPKYDPDNGKPKASAG [r5_816_TrROS]	3.68 ± 0.34 kcal/mol	4.38 ± 0.25 kcal/mol	2.97 ± 0.1 kcal/mol
SAGGSAGGLRVVKPEKVVEAIRKIRELVPKNYLVIVDSIEVREEGGKLYVDIPVLVLPVPPELLSAGGSAGG [r6_819_TrMRF]	1.65 ± 0.16 kcal/mol	1.79 ± 0.072 kcal/mol	1.54 ± 0.027 kcal/mol
SAGGMVEIELVPMSEEELKKLREELPENEILIVVKEDGLVLIVRVEKSEEEAEKLAEELRKLLEELPSAGGS [r16_311_TrROS_Hall]	1.69 ± 0.23 kcal/mol	0.935 ± 0.14 kcal/mol	2.05 ± 0.17 kcal/mol
SAGGSAGGSAGPKIPKNYKIVATYTVPPTNKKKLILYDPKTNKPLIFDTVSGKIYPFGKKSAGGSAGGSAGG [r11_268_TrMRF]	1.84 ± 0.097 kcal/mol	2 ± 0.11 kcal/mol	1.59 ± 0.027 kcal/mol
SAGGSAGGSAEVPKPGEAKPVLVTSSFTIPLPNGGTLEITTVDLVDVATGTVTPRVEVRSLDSAGGSAGGSA [r18_123_TrMRF]	< -1 kcal/mol	-0.991 ± 0.88 kcal/mol	-0.786 ± 0.33 kcal/mol
SAGGSAGGSAGGSMIVLRMSADEIKKLLPPGAKIKKIEYDEETDEVYVIIEFDKDGKIISAGGSAGGSAGGS [r4_435_TrROS_Hall]	1.49 ± 0.069 kcal/mol	1.32 ± 0.092 kcal/mol	1.53 ± 0.028 kcal/mol
SAGGAVEKNSNNPNTSPEKAKEIAEEIAEELKKEGHVPKSISFSEKENGKLTATIKIEDGKELTIGLSAGGS [r8_485_JUSTAS]	< -1 kcal/mol	-0.467 ± 0.17 kcal/mol	-0.343 ± 0.16 kcal/mol
SAGGSAGGSMVTIPTGTEEEVEKVIAELEKKGLKPKKVEKEGNKVTVEFPDGTKVELIIEPGKSAGGSAGGS [r20_93_JUSTAS]	1.95 ± 0.099 kcal/mol	2.36 ± 0.14 kcal/mol	1.06 ± 0.058 kcal/mol
SAGMTLKEEEFELPDGSRRIRLTFTSEEELAAKLKELGFEKFNPLSPSESVDVTIPPDGVLSESLPKEGSAG [r5_941_JUSTAS]	1.42 ± 0.11 kcal/mol	1.86 ± 0.066 kcal/mol	0.651 ± 0.061 kcal/mol
SAGGSAGGSAKIRLIFKTEEEARKAIEALLPEGAKAKIKVEKRKDGKKYVVVEIEFKEEEESAGGSAGGSAG [r3_87_TrROS_Hall]	3.57 ± 0.21 kcal/mol	3.79 ± 0.23 kcal/mol	3.58 ± 0.24 kcal/mol
SAGGSAGGKKVIVKIKIKVKDKETGEEKEIEITLEFETEEEAKAAIEALKALPPGVEIKIELLPSAGGSAGG [r6_999_TrROS_Hall]	4.19 ± 0.28 kcal/mol	2.72 ± 0.097 kcal/mol	4.42 ± 0.21 kcal/mol
SAGGPMRRVKVEIKDPDGGKIEIDDVYVPDNSVWAKIFLPDLGREIPFPFDTPDQAVEWIKDFVLQLSAGGS [r16_736_TrROS]	0.929 ± 0.29 kcal/mol	1.15 ± 0.21 kcal/mol	0.482 ± 0.099 kcal/mol
SAGGSAGGSVRIPGGQPNTKVTVTVRLPDGTPVEVEATVNPSGEITLDLPDVSPDLIESIELSSAGGSAGGS [r12_477_JUSTAS]	0.82 ± 0.038 kcal/mol	0.478 ± 0.027 kcal/mol	1.14 ± 0.019 kcal/mol
SAGGPDELELVIVFPAEALGTGEGGEPYTAEDIAEAIKKELPKDEVEVEIAEIDEETGEIVVTVKVPSAGGS [r16_284_TrMRF]	0.748 ± 0.23 kcal/mol	0.449 ± 0.077 kcal/mol	0.747 ± 0.13 kcal/mol
